Values joined by “and” are separate entries in the source; they are usually repeats but may differ in a detail not shown here. Identical values can stand only once.
T1: Full-length Snu66 (S. cerevisiae, UniProt Q12420 1-587)
T1 sequence: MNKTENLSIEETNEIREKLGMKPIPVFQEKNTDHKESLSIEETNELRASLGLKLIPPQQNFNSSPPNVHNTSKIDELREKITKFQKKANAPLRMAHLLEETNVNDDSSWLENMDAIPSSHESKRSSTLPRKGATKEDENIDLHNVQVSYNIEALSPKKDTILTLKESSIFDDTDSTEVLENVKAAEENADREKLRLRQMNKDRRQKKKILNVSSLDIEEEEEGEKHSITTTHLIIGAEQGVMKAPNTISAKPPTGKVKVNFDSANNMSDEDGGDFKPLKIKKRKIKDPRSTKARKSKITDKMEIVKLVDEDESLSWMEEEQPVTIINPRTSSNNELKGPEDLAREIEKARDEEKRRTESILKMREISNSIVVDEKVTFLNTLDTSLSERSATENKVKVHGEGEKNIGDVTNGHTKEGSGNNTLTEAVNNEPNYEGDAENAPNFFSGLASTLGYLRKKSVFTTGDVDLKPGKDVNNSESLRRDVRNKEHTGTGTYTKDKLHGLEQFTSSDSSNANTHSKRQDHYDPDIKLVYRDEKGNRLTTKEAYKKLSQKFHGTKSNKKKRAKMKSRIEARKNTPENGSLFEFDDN

B1: GST-Hub1 (natural protein)
chain: MIEVVVNDRLGKKVRVKCLAEDSVGDFKKVLSLQIGTQPNKIVLQKGGSVLKDHISLEDYEVHDQTNLELYYL
B2: ZnF-UBP domain from USP5 (domain or fragment)
chain: KQEVQAWDGEVRQVSKHAFSLKQLDNPARIPPCGWKCSKCDMRENLWLNLTDGSILCGRRYFDGSGGNNHAVEHYRETGYPLAVKLGTITPDGADVYSYDEDDMVLDPSLAEHLSHFGIDMLKMQKTDK

Experiments:
Full-length Snu66 = target: T1, Full-length Snu66; assay: pull-down
ubiquitin = ubiquitin (UniProt P0CG48 1-76); assay: ITC

binding result (Full-length Snu66) | Kd (ubiquitin) | Binder
binds |  | B1
 | 2.4 µM and 2.3 µM | B2
